Residue numbers refer to the chain shown, from its start.
T1: cynomolgus monkey IL-4Rα (cynomolgus monkey, UniProt P24394 26-231 (human entry), limits assumed)
T1 construct: also called Cyno IL-4Rα; cyIL-4Rα
T1 chain: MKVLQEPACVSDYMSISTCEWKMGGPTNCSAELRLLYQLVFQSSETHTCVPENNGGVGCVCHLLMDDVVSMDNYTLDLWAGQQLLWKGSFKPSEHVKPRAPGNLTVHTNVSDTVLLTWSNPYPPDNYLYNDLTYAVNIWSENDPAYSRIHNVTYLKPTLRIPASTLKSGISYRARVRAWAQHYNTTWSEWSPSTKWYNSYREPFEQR

T2: human IL-4Rα (human, UniProt P24394 26-232)
T2 construct: also called Hu IL-4Rα; hIL-4Rα
T2 sequence: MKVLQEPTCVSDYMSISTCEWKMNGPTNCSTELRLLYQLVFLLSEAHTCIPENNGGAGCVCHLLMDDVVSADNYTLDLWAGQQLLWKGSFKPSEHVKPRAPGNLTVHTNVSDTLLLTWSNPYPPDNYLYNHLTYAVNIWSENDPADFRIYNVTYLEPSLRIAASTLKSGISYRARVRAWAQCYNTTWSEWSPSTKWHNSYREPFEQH

T3: hIL-4Rα on cells (human, UniProt P24394 26-825)
T3 sequence: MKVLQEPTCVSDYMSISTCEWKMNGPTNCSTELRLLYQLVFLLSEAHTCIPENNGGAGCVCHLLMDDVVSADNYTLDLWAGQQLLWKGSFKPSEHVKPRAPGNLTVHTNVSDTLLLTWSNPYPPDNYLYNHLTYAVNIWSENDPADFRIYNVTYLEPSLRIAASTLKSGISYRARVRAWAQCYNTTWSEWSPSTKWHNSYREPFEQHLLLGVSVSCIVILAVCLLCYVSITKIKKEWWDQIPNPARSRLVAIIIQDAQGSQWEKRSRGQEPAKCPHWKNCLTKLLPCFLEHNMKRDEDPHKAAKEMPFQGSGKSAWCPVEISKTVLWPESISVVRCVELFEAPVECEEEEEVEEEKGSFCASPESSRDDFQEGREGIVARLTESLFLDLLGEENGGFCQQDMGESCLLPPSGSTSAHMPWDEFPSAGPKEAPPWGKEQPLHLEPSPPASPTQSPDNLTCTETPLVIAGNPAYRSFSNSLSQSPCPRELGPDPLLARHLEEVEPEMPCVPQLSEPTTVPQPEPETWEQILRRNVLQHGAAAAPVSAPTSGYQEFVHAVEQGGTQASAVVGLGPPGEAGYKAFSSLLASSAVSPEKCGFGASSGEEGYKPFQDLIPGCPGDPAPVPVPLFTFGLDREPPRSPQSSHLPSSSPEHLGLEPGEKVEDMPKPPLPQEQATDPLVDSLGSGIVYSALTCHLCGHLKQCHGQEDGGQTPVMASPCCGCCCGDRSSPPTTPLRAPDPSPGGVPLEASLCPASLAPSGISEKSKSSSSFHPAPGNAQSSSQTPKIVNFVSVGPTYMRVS

B1: Construct 27 (mAb435) (antibody, IgG4, V domains shown)
VH: EVQLVESGGGLEQPGGSLRLSCAGSGFTFTDFAMTWVRQAPGKGLEWVSSISGSGGNKYYADSVKGRFTISRDNSKNTLYLQMNSLRAEDTAVYYCAKDRLSVTVRPRYYGLDVWGQGTTVTVSS
VL: DIVMTQSPLSLPVTPGEPASISCTASQSLLYSIGYNYVDWYLQKSGQSPQLLIYLGNKRASGVPDRFSGSGSGTDFTLKISRVEAEDVGFYYCMQSLTSPYTFGQGTKLEIK
notes: VH/VL only
B2: Construct 34 (mAb459) (antibody, IgG4, V domains shown)
VH: B1 VH with T30R, G56D, K58I, V103K, V105I
VL: B1 VL with T24R, A25S, S28G, S96A, T98D, S99T
notes: VH/VL only
B3: Construct 37 (mAb470) (antibody, IgG4, V domains shown)
VH: B1 VH with T30R, D31T, F32Y, S54G, K58T
VL: B1 VL with T24R, I33V, K58N
notes: VH/VL only
B4: Construct 33 (mAb450) (antibody, IgG4, V domains shown)
VH: B1 VH with T30R, K58I, L101V, V103I, V105I
VL: B1 VL with N57S, S96A, T98G
notes: VH/VL only
B5: Construct 40 (mAb476) (antibody, IgG4, V domains shown)
VH: B1 VH with T30R, I51V, S54D, K58T, V103K, V105I
VL: B1 VL with T24R, A25S, L29V, S96A, L97Y, T98Q, T102V
notes: VH/VL only
B6: Construct 36 (mAb469) (antibody, IgG4, V domains shown)
VH: B1 VH with T30R, K58I, V103K, V105I
VL: B1 VL with T24R, A25S, Y35K, L55E, K58N
notes: VH/VL only
B7: Construct 39 (mAb473) (antibody, IgG4, V domains shown)
VH: B1 VH with T30R, F32S, G56D, K58T, V103I
VL: B1 VL with T24R, A25S, Y35K, S96A, T98G
notes: VH/VL only
B8: Construct 28 (mAb436) (antibody, IgG4, V domains shown)
VH: B1 VH with T30R, I51V, K58T
VL: B1 VL with A25S, T98Q, S99T
notes: VH/VL only
B9: Construct 35 (mAb467) (antibody, IgG4, V domains shown)
VH: B1 VH with T30R, D31T, F32Y, K58T, L101V, V103I, V105I
VL: B1 VL with A25S, Y35K, L55E, K58N, S61T
notes: VH/VL only

Legend:
cynomolgus monkey IL-4Rα = biological target: T1, cynomolgus monkey IL-4Rα; test: SPR, Carterra LSA;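 further: antibodies captured on an anti-human Fc sensor chip, antigen injected at several concentrations, association and dissociation rates fitted with a 1:1 Langmuir model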
Experimental: (§1) Binding affinity (KD) of antibodies to human and cynomolgus monkey IL-4Rα was determined through surface plasmon resonance (SPR) using a Carterra LSA. Briefly, an HC30M sensor chip that was previously functionalized with a polyclonal mixture of goat anti-human Fc antibody and used to capture purified antibodies at a level between 100-1000 RLU. […] Regeneration of the chip between different concentrations of antigen was performed with 200 mM phosphoric acid and antibody was captured again as previously described. Association and dissociation rate constants were subsequently determined through fitting to a 1:1 Langmuir binding model using the Kinetics Software from Carterra from which a KD value was derived.

human IL-4Rα = biological target: T2, human IL-4Rα; test: SPR, Carterra LSA;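 further: antibodies captured on an anti-human Fc sensor chip, antigen injected at several concentrations, association and dissociation rates fitted with a 1:1 Langmuir model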
Experimental: as §1

hIL-4Rα on cells [1] = biological target: T3, hIL-4Rα on cells; test: FACS on HEK293 cells, competitor biotin-hIL-4;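 further: HEK293 cells stably co-expressing hIL-13Rα and hIL-4Rα, stained for 1 h at 4 °C, read-out as mean fluorescence intensity by flow cytometry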
hIL-4Rα on cells [2] = biological target: T3, hIL-4Rα on cells; test: cell-based or functional assay
hIL-4Rα on cells [3] = biological target: T3, hIL-4Rα on cells; test: cell-based or functional assay; remark: listed apart in the source
hIL-4Rα on cells [4] = biological target: T3, hIL-4Rα on cells; test: cell-based or functional assay; remark: listed apart in the source
hIL-4Rα on cells [5] = biological target: T3, hIL-4Rα on cells; test: FACS on HEK293 cells, competitor biotin-hIL-13;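 further: stably transduced cells co-expressing both receptor chains, stained cold, with cell-bound signal read as mean fluorescence intensity by flow cytometry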
Experimental: Briefly, HEK293 previously transduced to stably express both hIL-13Rα and hIL-4Rα were cultured and harvested. Cells were seeded at 200,000 cells in 100 uL per well. Cells were washed and the supernatant discarded. […] The cells were stained in this mixture at 4° C. for 1 hour. […] Cells were incubated 4° C. for 1 hour, protected from light. Cells were then washed and the MFI of cells in each well were recorded by FACS using a BD FACSCanto II. Subsequent data were analyzed using GraphPad Prism.

Row | Binder | KD Relative to Dupilumab (cynomolgus monkey IL-4Rα) | Kd (cynomolgus monkey IL-4Rα) [nM] | KD Relative to Dupilumab (human IL-4Rα) | Kd (human IL-4Rα) [nM] | Relative Blockade of IL-4 Binding IC50 (hIL-4Rα on cells [1]) | Relative Inhibition of IL-4 induced TF-1 Proliferation IC50 (hIL-4Rα on cells [2]) | Relative Inhibition of IL-13 induced TF-1 Proliferation IC50 (hIL-4Rα on cells [2]) | Relative Inhibition of IL-4 induced pSTAT6 IC50 (hIL-4Rα on cells [3]) | Relative Inhibition of IL-13 induced pSTAT6 IC50 (hIL-4Rα on cells [3]) | Relative Inhibition of IL-4 induced TARC IC50 (hIL-4Rα on cells [4]) | Relative Inhibition of IL-13 induced TARC IC50 (hIL-4Rα on cells [4]) | Relative Blockade of IL-13 Binding IC50 (hIL-4Rα on cells [5])
1 | B1 | 0.28 | 176 | 1.12 | 0.0126 | 0.99 relative to dupilumab | 0.962 relative to dupilumab | 0.773 relative to dupilumab | 0.676 relative to dupilumab | 0.38 relative to dupilumab | 0.547 relative to dupilumab | 1.83 relative to dupilumab | 0.592 relative to dupilumab
2 | B2 | 0.53 | 334 | 1.01 | 0.0114 | 1.23 relative to dupilumab | 1.46 relative to dupilumab | 1.55 relative to dupilumab | 0.464 relative to dupilumab | 2.42 relative to dupilumab | 4.32 relative to dupilumab | 1.35 relative to dupilumab | 1.21 relative to dupilumab
3 | B3 | 0.23 | 143 | 1.03 | 0.0116 | 1.08 relative to dupilumab | 0.943 relative to dupilumab | 0.919 relative to dupilumab | 0.713 relative to dupilumab | 1.22 relative to dupilumab | 1.16 relative to dupilumab | 0.868 relative to dupilumab | 1.05 relative to dupilumab
4 | B4 | 0.05 | 33.9 | 0.78 | 0.00875 | 1.01 relative to dupilumab | 1.05 relative to dupilumab | 0.926 relative to dupilumab | 0.888 relative to dupilumab | 1.59 relative to dupilumab | 3.2 relative to dupilumab | 1.07 relative to dupilumab | 1.21 relative to dupilumab
5 | B5 | 0.22 | 136 | 1.11 | 0.0126 | 1.16 relative to dupilumab | 0.968 relative to dupilumab | 1.01 relative to dupilumab | 0.633 relative to dupilumab | 1.89 relative to dupilumab | 1.6 relative to dupilumab | 4.7 relative to dupilumab | 1.19 relative to dupilumab
6 | B6 | 0.61 | 385 | 0.99 | 0.0112 | 1.18 relative to dupilumab | 1.05 relative to dupilumab | 1.25 relative to dupilumab | 0.957 relative to dupilumab | 2.16 relative to dupilumab | 1.78 relative to dupilumab | 0.999 relative to dupilumab | 1.22 relative to dupilumab
7 | B7 | 0.27 | 168 | 0.92 | 0.0104 | 1.09 relative to dupilumab | 1.18 relative to dupilumab | 1.21 relative to dupilumab | 0.81 relative to dupilumab | 2.17 relative to dupilumab | 1.65 relative to dupilumab | 5.23 relative to dupilumab | 1.05 relative to dupilumab
8 | B8 | 0.09 | 54.7 | 0.69 | 0.00777 | 0.849 relative to dupilumab | 1.19 relative to dupilumab | 0.634 relative to dupilumab | 0.999 relative to dupilumab | 0.497 relative to dupilumab | 0.58 relative to dupilumab | 1.81 relative to dupilumab | 0.611 relative to dupilumab
9 | B9 | 0.29 | 180 | 0.99 | 0.0112 | 1.29 relative to dupilumab | 0.948 relative to dupilumab | 1.11 relative to dupilumab | 0.766 relative to dupilumab | 2.71 relative to dupilumab | 1.92 relative to dupilumab | 1.65 relative to dupilumab | 1.25 relative to dupilumab
